Assay results reported in patent US20230203482A1, “Methods of Rescuing Stop Codons via Genetic Reassignment with ACE-tRNA” (THE WISTAR INSTITUTE OF ANATOMY AND BIOLOGY, priority 2017, published 2023).

B1: GluTAGchr1.trna123: ACE-tRNA Glu, TAG suppressor, SEQ ID NO: 40 (nucleic acid)
chain: CGTCTCCCTGGTGGTCTAGTGGCTAGGATTCGGCGCTCTAACCGCCGCGGCCCGGGTTCGATTCCCGGTCAGGGAA
modifications: expressed or natural sequence
B2: GluTAGchr1.trna106: ACE-tRNA Glu, TAG suppressor, SEQ ID NO: 41 (nucleic acid)
chain: CGTCTCCCTGGTGGTCTAGTGGTTAGGATTCGGCGCTCTAACCGCCGCGGCCCGGGTTCGATTCCCGGTCAGGGAA
modifications: expressed or natural sequence
B3: GluTAGchr13.trna2: ACE-tRNA Glu, TAG suppressor, SEQ ID NO: 38 (nucleic acid)
chain: CGTCTCCCACATGGTCTAGCGGTTAGGATTCCTGGTTCTAACCCAGGCGGCCCGGGTTCGACTCCCGGTGTGGGAA
modifications: expressed or natural sequence
B4: GluTAGchr2.trna18: ACE-tRNA Glu, TAG suppressor, SEQ ID NO: 39 (nucleic acid)
chain: CGTCTCCCATATGGTCTAGCGGTTAGGATTCCTGGTTCTAACCCAGGTGGCCCGGGTTCGACTCCCGGTATGGGAA
modifications: expressed or natural sequence

System: NLuc-UAG PTC
Test: NanoLuc nonsense reporter screen (all-in-one HTC plasmid), TAG/UAG PTC, HEK293 cells
Format: cell-based, human
Conditions: Table 5, Glu TAG
Excerpt: In order to enable the identification of the nucleotide composition and functional ability to suppress nonsense codons by new types of tRNA, an All-In-One Plasmid With A One Pot Cloning Reaction was invented for High Throughput Cloning FIG. 11. This approach enables the facile investigation of ACE-tRNA activity via luciferase activity in a standard 96 well format. Briefly, synthetic nucleotide sequences encoding for tRNA are ligated into the NanoLuc Reporter plasmid, with an example of the TGA nonsense reporter plasmid variant shown in FIG. 11. […] and TAG (amber) stop codon rescue vectors have been successfully designed and implemented in FIGS. 16-19. The benefits are the approach is that DNA oligos encoding for tRNA libraries can be ligated in the NanoLuc reporter plasmid with the presence of the restriction enzyme and ligase with the reaction pushed to nearly 100% incorporation of tRNA insert (FIG. 11)-thus the ‘one-pot’ designation. The reaction is transformed into E. coli, with the resultant cDNA purified by standard methods. Another benefit of the invented method is that the tRNA and reporter gen are within the single expression cassette, therefore lowering biological variability and improving data quality obtaining in resulting screens of tRNA suppression activity. The purified cDNA plasmids are then screened in high-throughput 96 well format for their ability to repair nonsense codons by inferred luciferase activity. The approach is suitable for the high-throughput screening of hundreds to thousands of tRNA for novel therapeutic activity.
The rationale of this study is rooted in the observation that there are multiple tRNA genes with unique sequences (isodecoders) for a given cognate amino acid (isoacceptors), leading to >400 tRNAs annotated in the human genome (http:lowelab.ucsc.edu/GtRNAdb/)^28, 29. First, tRNA genes were examined to identify individual ACE-tRNAs that retain suppression efficacy of PTCs in mammalian cells. In order to maximize sequence coverage, an all-in-one cDNA plasmid was generated that supports both high-throughput cloning (HTC) of ACE-tRNAs and quantitative measurement of PTC suppression using luminescence following delivery to mammalian cells, FIG. 21B. ACE-tRNA sequences were cloned as DNA oligos into the HTC plasmid using Golden Gate cloning^30 paired with ccdB negative selection^31. This strategy produced ˜100% cloning efficiency. ACE-tRNA suppression efficiency was read out from a split NanoLuc luciferase (NLuc) NanoBiT platform whereby the PTC of interest (UGA, UAA, or UAG) was introduced in-frame at the junction between the large bit and small bit domains, FIG. 21B^32, using a 96-well format and normalized to background obtained in NLuc-PTC expressing cells. Twenty-one glycine ACE-tRNAs were first evaluated for suppression of the UGA PTC, FIG. 22, top left, column 1 (violet). […] Given the high sequence conservation among the Gly-tRNAs screened for anti-codon tolerance (FIG. 27), it would be difficult to predict de novo which tRNA would be most amenable to anticodon-editing.
The parent plasmid used was pcDNA3.1(+). The cDNA encoding pNLuc was Gibson Assembled (New England Biolabs, USA) into restriction sites HindIII and XhoI. A glycine (codon gga), tryptophan ([…]), amber (tag), opal (tga) and ochre (taa), were added to amino acid position 160 during cDNA per. The pcDNA3.1(+) polyA sequence was replaced for one with no BbsI restriction sites using per based Gibson Assembly. The high throughput ACE-tRNA Golden Gate cloning site was generated by first inserting the 5′ leader sequence of the human tRNA^Tyr gene (bold) with a T7 promoter sequence upstream (italics)
tRNA gene sequences were obtained from the tRNA database tRNAscan-SE (http://gtrnadb.ucsc.edu/index.html; PMID: 26673694). […]

Molecule	Ranking
B1	#3
B2	#4
B3	#1
B4	#2
